Values quoted from earlier work, collected in publication PMC11329504, “Identification of novel small molecule-based strategies of COL7A1 upregulation and readthrough activity for the treatment of recessive dystrophic epidermolysis bullosa” (Scientific Reports, 2024).

Biological target: Laminin 5 (Homo sapiens) (UniProt Q16787)

Sequence of Collagen VII NC1 NC1 (Q02388 17-1253): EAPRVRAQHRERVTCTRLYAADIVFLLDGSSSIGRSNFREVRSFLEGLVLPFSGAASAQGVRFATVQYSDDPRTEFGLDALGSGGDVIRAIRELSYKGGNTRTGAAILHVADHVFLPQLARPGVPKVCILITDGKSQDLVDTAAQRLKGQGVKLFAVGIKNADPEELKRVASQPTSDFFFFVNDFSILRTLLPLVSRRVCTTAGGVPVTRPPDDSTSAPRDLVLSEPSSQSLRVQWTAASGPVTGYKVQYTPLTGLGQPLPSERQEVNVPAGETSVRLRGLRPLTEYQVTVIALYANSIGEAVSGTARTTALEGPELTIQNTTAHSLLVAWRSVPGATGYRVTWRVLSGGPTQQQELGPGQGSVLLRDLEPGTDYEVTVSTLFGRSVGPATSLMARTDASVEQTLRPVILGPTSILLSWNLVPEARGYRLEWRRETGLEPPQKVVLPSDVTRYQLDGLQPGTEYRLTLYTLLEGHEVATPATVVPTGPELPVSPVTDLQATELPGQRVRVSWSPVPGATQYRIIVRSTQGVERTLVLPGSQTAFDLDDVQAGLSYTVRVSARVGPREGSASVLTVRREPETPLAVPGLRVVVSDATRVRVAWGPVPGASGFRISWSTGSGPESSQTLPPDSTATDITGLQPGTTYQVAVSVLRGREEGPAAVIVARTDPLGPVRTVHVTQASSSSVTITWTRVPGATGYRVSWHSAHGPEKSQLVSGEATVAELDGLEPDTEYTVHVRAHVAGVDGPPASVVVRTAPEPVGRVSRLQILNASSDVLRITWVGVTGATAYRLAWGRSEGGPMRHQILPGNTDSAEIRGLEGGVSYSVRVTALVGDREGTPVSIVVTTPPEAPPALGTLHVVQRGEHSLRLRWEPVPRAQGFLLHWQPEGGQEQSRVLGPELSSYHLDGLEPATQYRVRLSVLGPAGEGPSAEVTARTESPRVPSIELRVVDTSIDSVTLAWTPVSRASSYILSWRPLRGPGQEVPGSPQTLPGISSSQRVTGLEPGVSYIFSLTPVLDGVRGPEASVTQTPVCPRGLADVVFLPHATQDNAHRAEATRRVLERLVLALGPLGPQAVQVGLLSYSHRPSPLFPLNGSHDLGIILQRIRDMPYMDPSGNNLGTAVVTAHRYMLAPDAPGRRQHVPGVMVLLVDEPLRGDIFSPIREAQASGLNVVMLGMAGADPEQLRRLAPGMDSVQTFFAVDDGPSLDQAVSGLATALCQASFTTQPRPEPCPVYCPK

Kd: 48 nM
Substance: Collagen VII NC1 NC1 (from UniProt Q02388)
